{"source": "paper PMC11430099", "tested_on": "T1, CadX (single-chain homodimer, two identical CadX copies joined by GGGGSGGGGSGGGGS linker) (Streptococcus suis GZ0565), ORF:24397d24", "T1 sequence": "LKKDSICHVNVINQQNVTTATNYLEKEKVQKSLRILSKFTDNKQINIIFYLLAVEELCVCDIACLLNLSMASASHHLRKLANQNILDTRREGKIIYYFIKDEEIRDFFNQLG", "test": "EMSA", "data": [{"sequence": "TTTGGATGGCAGGGCTTTTTTATATTTGGTACACTAACTTCTTATCTATATTTTGGTGGAGCTGAAGTTGACATCTACAATGTTTAATGTTAGAATACATTCAAAAATATATTTGAATGAGGTCTTTT (double strand) [cadDX promoter fragment]", "values": [{"measurement": "binding", "value": "binds"}]}]}
